Values of other authors in article PMC11391413.
Read-outs that look alike come from different tables or passages of the source.

What was measured:
[1] = molecular target: SOS1 S2 (Homo sapiens)
[2] = molecular target: SOS1 S1 (Homo sapiens)
[3] = molecular target: SOS1 S10 PRM (Homo sapiens) (UniProt Q07889); assay: NMR
[4] = molecular target: SOS1 S4 PRM (Homo sapiens); assay: NMR
[5] = molecular target: SOS1 S7 PRM (Homo sapiens) (UniProt Q07889); assay: NMR
[6] = molecular target: SOS1 S8 PRM (Homo sapiens) (UniProt Q07889); assay: NMR
[7] = molecular target: SOS1 S4 (Homo sapiens)
[8] = molecular target: SOS1 S4 (Homo sapiens); remark: listed apart in the source
[9] = molecular target: SOS1 S2 (Homo sapiens); remark: listed apart in the source

Chain of GRB2 CSH3 (P62993 156-215): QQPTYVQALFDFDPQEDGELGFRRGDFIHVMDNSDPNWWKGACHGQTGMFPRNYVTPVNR
Chain of GRB2 NSH3 (P62993 1-58): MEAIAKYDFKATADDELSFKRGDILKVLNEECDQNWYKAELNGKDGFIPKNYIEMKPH

Kd [1] [µM]	Kd [2] [µM]	Kd [3] [µM]	Kd [4] [µM]	Kd [5] [µM]	Kd [6] [µM]	Kd [7] [µM]	Kd [8] [µM]	Kd [9] [µM]	Substance
250	730	71.5	37	580	208	37			GRB2 NSH3 (from UniProt P62993)
		131	142		400		142	440	GRB2 CSH3 (from UniProt P62993)
